# According to the DeepSol protein solubility set:
# Assay: soluble on expression in E. coli; label from the status in PepcDB or PDB records
row,Sequence,soluble on expression in E. coli
1,MGSDKIHHHHHHMLCSRYFTSSLFLWGEALPTLLEEFLNEVEKMLKNQVNTRRIHQLLKELDDPLLENKDLEEKLQAFLDYVKEIPNLPEARKRYRIQKSLEMIEKLRSWFLIDYLECSGEEVDLSTDIQYAKGVGPNRKKKLKKLGIETLRDLLEFFPRDYEDRRKIFKLNDLLPGEKVTTQGKIVSVETKKFQNMNILTAVLSDGLVHVPLKWFNQDYLQTYLKQLTGKEVFVTGTVKSNAYTGQYEIHNAEVTPKEGEYVRRILPIYRLTSGISQKQMRKIFEENIPSLCCSLKETLPERILEKRKLLGVKDAYYGMHFPKTFYHLEKARERLAYEELFVLQLAFQKIRKEREKHGGIPKKIEGKLAEEFIKSLPFKLTNAQKRAHQEIRNDMISEKPMNRLLQGDVGSGKTVVAQLAILDNYEAGFQTAFMVPTSILAIQHYRRTVESFSKFNIHVALLIGATTPSEKEKIKSGLRNGQIDVVIGTHALIQEDVHFKNLGLVIIDEQHRFGVKQREALMNKGKMVDTLVMSATPIPRSMALAFYGDLDVTVIDEMPPGRKEVQTMLVPMDRVNEVYEFVRQEVMRGGQAFIVYPLIEESDKLNVKSAVEMYEYLSKEVFPEFKLGLMHGRLSQEEKDRVMLEFAEGRYDILVSTTVIEVGIDVPRANVMVIENPERFGLAQLHQLRGRVGRGGQEAYCFLVVGDVGEEAMERLRFFTLNTDGFKIAEYDLKTRGPGEFFGVKQHGLSGFKVADLYRDLKLLEWAREDVQEIDVEGIELPEEIKLIEVG,not soluble
2,SSVSGLKAELKFLASIFDKNHERFRIVSWKLDELHCQFLVPQQGSPHSLPPPLTLHCNITESYPSSSPIWFVDSEDPNLTSVLERLEDTKNNNLLRQQLKWLICELCSLYNLPKHLDVEMLDQPLPTGQNGTTEEVTSEEEEEEEEMAEDIEDLDHYEMKEEEPISGKKSEDEGIEKENLAILEKIRKTQRQDHLNGAVSGSVQASDRLMKELRDIYRSQSYKTGIYSVELINDSLYDWHVKLQKVDPDSPLHSDLQILKEKEGIEYILLNFSFKDNFPFDPPFVRVVLPVLSGGYVLGGGALCMELLTKQGWSSAYSIESVIMQINATLVKGKARVQFGANKNQYNLARAQQSYNSIVQIHEKNGWYTPPKEDG,not soluble
3,GPGSMEEQDQRKPNGGNNGLPVPPSTTETGQGPLQDILGRTPNCQYVKKRLLGQGSFGSAWRVEESATGNVFAAKVMDLNNMSEKDRGFVTNEVKCLSRCCNPHVVRCENAIEREGQLLIVMEYADGGDLYKQIKARVREMKFFREHEVVFIFLQLCLALDHIHSNKMMHRDLKTANILLTTTGLVKLGDFGFSRQYEDSLSNAVGSTFCGTPYYLSPELWHRQPYSKKSEMWALGVVLYEVMALRRPFTGKNMDELITNICHGRCSDLPSSYSASLRDVCNRLLSVDPNTRPTIHELFHEPFIRSNLETLKRSVEKHNRIPADVREAIARCITQSLNTEEPPAHLEEPEPLIGTVKRHTALRGWQKCLLSFDEKQISIRDPSGVDPEEVVPVATLTSVCPIDVMMAGEEFVFAMKNQAGKAFWFMAPSQRAYEQWLTTLQEAAP,soluble
4,MSLSINIKAVTDDNRAAILDLHVSQNQLSYIESTKVCLEDAKECHYYKPVGLYYEGDLVGFAMYGLFPEYDEDNKNGRVWLDRFFIDERYQGKGLGKKMLKALIQHLAELYKCKRIYLSIFENNIHAIRLYQRFGFQFNGELDFNGEKVMVKELEGGSHHHHHH,soluble
5,AKKLKKEYLDWYNQILEFSNLSNNSVKIDTPFKDNSLDNLKIYALYDQSRDMITLTDDGYTIFGLENNGVSINKFKKRKKIFEEHLSAYGIKYNDKTHEIFVQTNFKNFNKSKHNLLQCLIFVNDMYLLSNPKSQNIFTEDVANKLDEHNIYYGRDIPIIGSSGVVHNFDFFISAKKNQKEKFINVFSNPNNSMIIKSKITDAMQAKKIKRHRQNEFIFILNDSKKEINEHNKNLLHENYISTIDYSELDEKIGLL,not soluble
6,MEASRLLLLEDSSVDAELIEDQLSRLSPPPAVTRAVGKASFIEALEKQQFDIILADFSLPDFDGMSALDLVMRTRPDTPFIFVSGILGEDAAIDAFRRGATDYVLKQRLVRLPSAVERALAEAREKQERKRAELHKELLVRELSHRVKNTMAMVVSIIRRTAKGSTSIKDYQERLVARVSALAESHALLFQSNWGETNLRDVVKRAIEPHNTFASRVELEGPDGVHVSPKSALALGMILHELATNAQKYGSLSGANGKVEVFWKKILNGDGNDCIDLRWQESGGPPVSVPQDTGFGTTLITRGVQYELQAESEIRYDPDGLQYRVIFPLD,not soluble
7,MAGVKYPGQDPVDLDIYQSSHMVDYQPYRKHKYSRVTPQEQAKLDAQLRDKEFYRPIPNPNPKLTDGYPAFKRPHMTAKDLGLPGFFPSQEHEATREDERKFTSTCHFTYPASHDLHLAQGDPNQVLQSADFPCLVDPKHQPAAEMAKGYLLLPGCPCLHCHIVKVPILNRWGPLMPFYQ,not soluble
